Key:
[1] = molecular target: human VEGFR1-hFc (human) (UniProt P17948)
[2] = molecular target: VEGF Trap (aflibercept) (human); test: SPR; Biacore 3000, CM5 chip, 25°C, HBS-T (10 mM Hepes, 150 mM NaCl, 3.4 mM EDTA, 0.05% polysorbate 20, pH 7.4); VEGF Trap or receptor-Fc captured at low density on amine-coupled Protein A, ligands injected (1.0–0.062 nM VEGF-A, 2.5–0.156 nM VEGF-B(10-108), 5.0–0.078 nM PlGF); kd of VEGF-A ligands by the 'fixed kd' procedure on a Biacore 2000 (~2–3 h); KD = kd/ka
[3] = molecular target: VEGF Trap (aflibercept) (human); test: KinExA solution equilibrium assay; KinExA 3000, room temperature (25°C); VEGF Trap (1–50 pM) equilibrated 10–96 h with varying ligand; unbound inhibitor captured on VEGF-A165-coupled Azlactone beads and detected with Cy5 anti-human IgG; one-site homogeneous binding model

Sequence of VEGF Trap (aflibercept) (human) (chain, INN chains, looked up, as listed by the source): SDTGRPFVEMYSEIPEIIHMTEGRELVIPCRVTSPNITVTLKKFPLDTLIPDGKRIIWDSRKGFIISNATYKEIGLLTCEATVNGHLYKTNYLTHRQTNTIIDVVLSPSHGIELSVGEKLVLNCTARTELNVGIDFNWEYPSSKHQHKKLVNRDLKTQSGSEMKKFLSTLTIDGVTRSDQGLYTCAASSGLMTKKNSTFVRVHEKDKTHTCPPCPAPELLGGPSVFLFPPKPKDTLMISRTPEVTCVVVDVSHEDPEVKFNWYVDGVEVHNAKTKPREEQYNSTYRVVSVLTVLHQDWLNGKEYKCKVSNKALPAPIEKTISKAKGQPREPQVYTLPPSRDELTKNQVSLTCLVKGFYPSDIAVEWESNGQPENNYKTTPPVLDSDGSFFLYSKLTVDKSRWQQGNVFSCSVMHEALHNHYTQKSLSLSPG
Sequence of human VEGFR1-hFc (human) (P17948 27-758): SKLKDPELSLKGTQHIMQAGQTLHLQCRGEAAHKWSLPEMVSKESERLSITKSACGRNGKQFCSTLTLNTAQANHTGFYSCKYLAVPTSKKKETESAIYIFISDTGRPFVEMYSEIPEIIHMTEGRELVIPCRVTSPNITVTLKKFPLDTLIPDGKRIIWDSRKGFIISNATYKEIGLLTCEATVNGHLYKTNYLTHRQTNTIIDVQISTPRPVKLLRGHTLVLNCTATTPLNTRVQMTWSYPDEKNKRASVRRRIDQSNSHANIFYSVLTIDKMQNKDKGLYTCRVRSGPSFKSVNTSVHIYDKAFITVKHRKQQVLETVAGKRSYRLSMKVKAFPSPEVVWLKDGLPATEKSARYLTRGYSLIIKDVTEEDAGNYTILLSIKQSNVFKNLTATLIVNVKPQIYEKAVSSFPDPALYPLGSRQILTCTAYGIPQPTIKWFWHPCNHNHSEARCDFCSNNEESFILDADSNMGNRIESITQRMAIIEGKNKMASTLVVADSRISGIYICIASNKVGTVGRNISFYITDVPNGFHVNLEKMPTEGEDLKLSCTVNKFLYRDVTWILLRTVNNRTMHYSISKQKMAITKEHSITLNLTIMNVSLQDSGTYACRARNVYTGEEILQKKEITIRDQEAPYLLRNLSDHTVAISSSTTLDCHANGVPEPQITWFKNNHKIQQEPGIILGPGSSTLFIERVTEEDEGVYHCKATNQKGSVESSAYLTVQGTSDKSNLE

B1: murine PlGF-2 (ligand)
chain: VHSQGALSAGNNSTEVEVVPFNEVWGRSYCRPMEKLVYILDEYPDEVSHIFSPSCVLLSRCSGCCGDEGLHCVPIKTANITMQILKIPPNRDPHFYVEMTFSQDVLCECRPILETTKAERRKTKGKRKRSRNSQTEEPHP
In the case of B1, the EC50 of luciferase activation in HEK293/VEGFR1 cells (dose response, 0.022 pM to 4.0 nM) [1] is reported as 10 pM and the Kd [2] is reported as 0.00332 nM.

B2: human PlGF-2 (ligand)
chain: LPAVPPQQWALSAGNGSSEVEVVPFQEVWGRSYCRALERLVDVVSEYPSEVEHMFSPSCVSLLRCTGCCGDENLHCVPVETANVTMQLLKIRSGDRPSYVELTFSQHVRCECRPLREKMKPERRRPKGRGKRRREKQRPTDCHLCGDAVPRR
B2 was tested, and the Kd [3] was 0.0207 nM, the EC50 of luciferase activation in HEK293/VEGFR1 cells (dose response, 0.022 pM to 4.0 nM) [1] was 29 pM and the Kd [2] was 0.0389 nM. The koff [2] was 6.81e-05 s⁻¹ and the kon [2] was 1.75e+06 M⁻¹ s⁻¹.

— paper PMC3338918
